Source: paper PMC8940892

Molecular target: small capsid protein (SCP, VP26) of pseudorabies virus (pseudorabies virus (PRV), Bartha strain)
Experiment: cryo-EM structure

How did the stoichiometry N turn out when “small capsid protein (SCP, VP26) of pseudorabies virus (natural protein)” was run?
Its stoichiometry N is 6.
